Target: the molecule itself
Assay: crystal structure; apo-LiDps crystals (hanging drop, 100 mM HEPES pH 7.5, 12.5-20.0% PEG 1500, 21 °C) soaked 30 or 120 min in 10 mM YbCl3; space group P41212 with six monomers in the asymmetric unit; data at 100 K

B1: Listeria innocua Dps (DNA binding protein from starved cells) (natural protein)
chain: MKTINSVDTKEFLNHQVANLNVFTVKIHQIHWYMRGHNFFTLHEKMDDLYSEFGEQMDEVAERLLAIGGSPFSTLKEFLENASVEEAPYTKPKTMDQLMEDLVGTLELLRDEYKQGIELTDKEGDDVTNDMLIAFKASIDKHIWMFKAFLGKAPLE
notes: Dps (ferritin-like protein) of Listeria innocua; Homo-dodecameric cage; Crystals in space group P41212 have six monomers in the asymmetric unit; Crystals were soaked with 10 mM YbCl3 for 30 or 120 min; PDB 1QGH was the search model for molecular replacement; also called LiDps; Apo-Dps; copies: 12
stoichiometry N: 12

Source: PMC8389677, “Time-Resolved Studies of Ytterbium Distribution at Interfacial Surfaces of Ferritin-like Dps Protein Demonstrate Metal Uptake and Storage Pathways” (Biomedicines, 2021)
